For five sequences, Kd results are on record in the Immune Epitope Database (IEDB).

The target of assay [1] is HLA-A*02:01. Put plainly: IEDB peptide-MHC binding, purified MHC/direct/fluorescence; filed as Kd, often an IC50 or EC50 that approximates it; ≥ and ≤ were set here for values at or beyond the usual limits of such assays. As to conditions: source organism: Mycobacterium tuberculosis.
For the next assay, the target named is HLA-A*03:01. The assay is described as above.
The next assay deals with HLA-A*11:01. Described as above. The following applies: source organism: Mycobacterium tuberculosis.
In assay [2] the target is HLA-A*26:01. The description is as above. The following applies: source organism: Mycobacterium tuberculosis str. Haarlem.
The target in a further assay is HLA-A*31:01. Described as above.
The target in assay [3] is HLA-A*69:01. The description is as above. The following applies: source organism: Mycobacterium tuberculosis.
The next assay concerns the target HLA-B*15:09. The assay is described as above. As to conditions: source organism: Mycobacterium tuberculosis str. Haarlem.
A further assay concerns the target HLA-B*15:17. Described as above. The following applies: source organism: Mycobacterium tuberculosis.
Assay [4] addresses HLA-B*18:01. The assay is described as above. As to conditions: source organism: Mycobacterium tuberculosis.
A further assay deals with HLA-B*27:05. The assay is described as above.
The target of another assay is HLA-B*40:01. Described as above. The following applies: source organism: Mycobacterium tuberculosis.
Assay [5] addresses HLA-B*46:01. The assay is described as above. The following applies: source organism: Mycobacterium tuberculosis.
The next assay addresses HLA-B*48:01. The description is as above. As to conditions: source organism: Mycobacterium tuberculosis.
The target of assay [6] is HLA-B*51:01. The description is as above. The following applies: source organism: Mycobacterium tuberculosis.
The target in assay [7] is HLA-B*57:01. Described as above.
A further assay concerns the target HLA-B*58:01. Described as above.
Assay [8] deals with HLA-A*01:01. Put plainly: IEDB peptide-MHC binding, purified MHC/competitive/fluorescence; filed as Kd, often an IC50 or EC50 that approximates it; ≥ and ≤ were set here for values at or beyond the usual limits of such assays. The following applies: source organism: Mycobacterium tuberculosis variant bovis BCG str. Pasteur 1173P2.
Assay [9] deals with HLA-B*15:01. The description is as above. The following applies: source organism: Mycobacterium tuberculosis variant bovis BCG str. Pasteur 1173P2.
A further assay addresses HLA-B*15:42. Described as above. The following applies: source organism: Mycobacterium tuberculosis variant bovis BCG str. Pasteur 1173P2.
Assay [10] has as its target HLA-B*39:01. Described as above.
For another assay, the target named is HLA-B*45:06. Described as above. As to conditions: source organism: Mycobacterium tuberculosis variant bovis BCG str. Pasteur 1173P2.
In a further assay the target is HLA-B*83:01. The description is as above. As to conditions: source organism: Mycobacterium tuberculosis variant bovis BCG str. Pasteur 1173P2.
Assay [11] has as its target HLA-A*01:01. Put plainly: IEDB peptide-MHC binding, purified MHC/direct/fluorescence; filed as Kd, often an IC50 or EC50 that approximates it; ≥ and ≤ were set here for values at or beyond the usual limits of such assays.
Another assay addresses HLA-B*07:02. Described as above.
In assay [12] the target is HLA-B*39:01. The description is as above.
The next assay deals with HLA-B*44:02. Described as above.
The next assay has as its target HLA-A*02:03. The description is as above. As to conditions: source organism: Zaire ebolavirus.
Another assay concerns the target HLA-A*02:11. The description is as above. The following applies: source organism: Zaire ebolavirus.
The target of the next assay is HLA-A*02:12. Described as above. As to conditions: source organism: Zaire ebolavirus.
The next assay concerns the target HLA-A*02:16. The assay is described as above. As to conditions: source organism: Zaire ebolavirus.
A further assay addresses HLA-A*02:19. The assay is described as above. The following applies: source organism: Zaire ebolavirus.
Another assay has as its target HLA-A*24:03. Described as above. The following applies: source organism: Zaire ebolavirus.
Another assay has as its target HLA-A*68:02. The assay is described as above. The following applies: source organism: Zaire ebolavirus.
The target of the next assay is HLA-B*08:01. The description is as above. As to conditions: source organism: Ebola virus - Eckron (Zaire, 1976).
Assay [13] concerns the target HLA-A*02:01. In words: IEDB peptide-MHC binding, purified MHC/competitive/fluorescence; filed as Kd, often an IC50 or EC50 that approximates it; ≥ and ≤ were set here for values at or beyond the usual limits of such assays. The following applies: source organism: Zaire ebolavirus.
In assay [14] the target is HLA-A*26:01. The description is as above. As to conditions: source organism: Zaire ebolavirus.
Assay [15] concerns the target HLA-A*69:01. Described as above. As to conditions: source organism: Zaire ebolavirus.
For assay [16], the target named is HLA-B*18:01. The description is as above. As to conditions: source organism: Zaire ebolavirus.
A further assay has as its target HLA-B*27:03. The assay is described as above. As to conditions: source organism: Zaire ebolavirus.
The target in assay [17] is HLA-B*46:01. The description is as above. The following applies: source organism: Zaire ebolavirus.
The target of assay [18] is HLA-B*51:01. Described as above. The following applies: source organism: Zaire ebolavirus.
Assay [19] has as its target HLA-B*57:01. The assay is described as above. As to conditions: source organism: Zaire ebolavirus.
The target of assay [20] is HLA-B*15:01. In words: IEDB peptide-MHC binding, purified MHC/direct/fluorescence; filed as Kd, often an IC50 or EC50 that approximates it; ≥ and ≤ were set here for values at or beyond the usual limits of such assays. The following applies: source organism: Mycobacterium tuberculosis.
[21] abbreviates: source organism: Mycobacterium tuberculosis.
Where [22] appears, read: source organism: Mammarenavirus lassaense.
[23] abbreviates: source organism: Zaire ebolavirus.

Where only a bound is given, the exact number is not on record here.

What is called Kd is the free concentration of one partner at which half of the binding sites on the other are occupied at equilibrium, for simple one-to-one binding. Higher therefore signals a looser complex. As for RPRCAYLPF, the Kd was not below 20 µM in the assay with HLA-A*02:01 [1]; not below 20 µM with HLA-A*03:01 (setting [21]); not below 20 µM with HLA-A*11:01; 2.6 µM with HLA-A*26:01 [2]; not below 20 µM with HLA-A*31:01 (setting [21]); not below 20 µM with HLA-A*69:01 [3]. For the same sequence, the dissociation constant Kd in the assay with HLA-B*15:09 is not below 20 µM; in the assay with HLA-B*15:17, 0.197 µM; with HLA-B*18:01 [4], 5.59 µM; with HLA-B*27:05 (setting [21]), not below 20 µM; with HLA-B*40:01, not below 20 µM; in the assay with HLA-B*46:01 [5], 5.59 µM. The Kd was not below 20 µM with HLA-B*48:01; not below 20 µM in the assay with HLA-B*51:01 [6]; not below 20 µM with HLA-B*57:01 [7] (setting [21]); not below 20 µM in the assay with HLA-B*58:01 (setting [21]); not below 20 µM with HLA-A*01:01 [8]; 2.17 µM with HLA-B*15:01 [9]. In addition, the Kd with HLA-B*15:42 is not below 5 µM; in the assay with HLA-B*39:01 [10] (source organism: Mycobacterium tuberculosis variant bovis BCG str. Pasteur 1173P2) it was not below 20 µM; in the assay with HLA-B*45:06, not below 5 µM; with HLA-B*83:01, 0.0317 µM.
In the case of NQFGTMPSL, the Kd with HLA-A*01:01 [11] (setting [22]) was not below 20 µM; with HLA-A*03:01 (setting [22]) it was not below 20 µM; with HLA-A*31:01 (setting [22]), not below 20 µM; with HLA-B*07:02 (setting [22]) it was not below 20 µM; with HLA-B*27:05 (setting [22]) it was not below 20 µM; in the assay with HLA-B*39:01 [12] (setting [22]), 0.0011 µM. The dissociation constant (Kd) in the assay with HLA-B*44:02 (setting [22]), in the assay with HLA-B*57:01 [7] (setting [22]) and with HLA-B*58:01 (setting [22]) was not below 20 µM in each case.
For VVRVRRELL, the dissociation constant (Kd) with HLA-A*02:03, with HLA-A*02:11, with HLA-A*02:12, in the assay with HLA-A*02:16, with HLA-A*02:19 and in the assay with HLA-A*03:01 (setting [23]) was not below 20 µM each time. In addition, the Kd in the assay with HLA-A*24:03 was not below 20 µM; in the assay with HLA-A*68:02, not below 20 µM; with HLA-B*07:02 (source organism: Ebola virus - Eckron (Zaire, 1976)), 8 µM; with HLA-B*08:01 it was 6 µM; with HLA-A*02:01 [13] it was not below 20 µM; with HLA-A*26:01 [14] it was not below 20 µM. The Kd with HLA-A*69:01 [15], in the assay with HLA-B*18:01 [16], in the assay with HLA-B*27:03, in the assay with HLA-B*39:01 [10] (setting [23]), with HLA-B*46:01 [17] and with HLA-B*51:01 [18] was not below 20 µM throughout. In the assay with HLA-B*57:01 [19], this sequence returned a dissociation constant (Kd) not below 20 µM.
In the case of MRMGDLHLL, in the assay with HLA-B*39:01 [12] (source organism: Influenza A virus (A/swine/Italy/1850/1977(H3N2))), the Kd was determined as 0.0396 µM.
As to FHVNPAFVL, the Kd in the assay with HLA-A*01:01 [11] (setting [21]), with HLA-A*03:01 (setting [21]), with HLA-A*11:01, in the assay with HLA-A*31:01 (setting [21]), in the assay with HLA-B*07:02 (setting [21]) and with HLA-B*15:01 [20] was not below 20 µM each time. Moreover, the Kd in the assay with HLA-B*27:05 (setting [21]) was not below 20 µM; with HLA-B*39:01 [12] (setting [21]), 0.014 µM; in the assay with HLA-B*44:02 (setting [21]) it was not below 20 µM; with HLA-B*46:01 [5] it was not below 20 µM; in the assay with HLA-B*57:01 [7] (setting [21]), not below 20 µM; in the assay with HLA-B*58:01 (setting [21]), not below 20 µM.
